The target in assay [1] is recombinant truncated mouse furin (mouse) (UniProt P23188). Briefly: enzyme inhibition, pERTKR-MCA hydrolysis (fluorescence), competitive Ki.
Assay [2] concerns the target proprotein convertase PC2. Described as above.

Non-standard residues stand in square brackets, D forms with d.

Chain of proprotein convertase PC2 (P21661 109-637): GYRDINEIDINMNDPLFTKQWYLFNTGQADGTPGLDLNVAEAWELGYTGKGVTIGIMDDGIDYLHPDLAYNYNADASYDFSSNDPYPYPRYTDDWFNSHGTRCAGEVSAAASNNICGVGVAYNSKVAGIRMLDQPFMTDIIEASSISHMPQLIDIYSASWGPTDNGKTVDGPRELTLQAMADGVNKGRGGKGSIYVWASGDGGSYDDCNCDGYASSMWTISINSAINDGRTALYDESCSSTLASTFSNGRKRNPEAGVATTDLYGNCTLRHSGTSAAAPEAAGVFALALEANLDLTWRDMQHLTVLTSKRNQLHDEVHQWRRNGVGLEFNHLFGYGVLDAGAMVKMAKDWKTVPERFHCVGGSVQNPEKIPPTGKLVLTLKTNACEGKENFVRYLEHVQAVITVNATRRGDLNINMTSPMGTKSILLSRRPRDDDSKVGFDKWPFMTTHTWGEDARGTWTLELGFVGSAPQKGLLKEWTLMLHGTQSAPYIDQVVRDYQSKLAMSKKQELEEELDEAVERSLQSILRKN
Chain of recombinant truncated mouse furin (mouse) (P23188 108-714): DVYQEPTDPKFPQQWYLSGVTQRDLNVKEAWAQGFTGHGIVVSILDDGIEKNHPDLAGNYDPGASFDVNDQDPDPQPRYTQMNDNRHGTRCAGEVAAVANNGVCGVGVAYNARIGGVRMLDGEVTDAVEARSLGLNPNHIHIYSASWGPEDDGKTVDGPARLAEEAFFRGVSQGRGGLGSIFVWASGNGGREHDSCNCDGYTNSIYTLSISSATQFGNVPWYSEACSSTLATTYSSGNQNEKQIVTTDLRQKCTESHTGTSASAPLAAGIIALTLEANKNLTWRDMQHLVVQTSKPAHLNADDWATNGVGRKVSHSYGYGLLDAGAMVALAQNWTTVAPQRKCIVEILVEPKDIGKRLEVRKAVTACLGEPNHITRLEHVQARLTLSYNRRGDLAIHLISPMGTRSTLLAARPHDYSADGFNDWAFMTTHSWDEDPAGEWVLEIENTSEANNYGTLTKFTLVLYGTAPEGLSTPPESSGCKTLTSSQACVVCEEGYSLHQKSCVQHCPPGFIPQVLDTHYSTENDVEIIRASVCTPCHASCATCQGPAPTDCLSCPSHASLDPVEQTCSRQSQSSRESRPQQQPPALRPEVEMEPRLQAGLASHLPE

B1: Ac-wrrril-NH2 (peptide)
peptide: Ac-[dW][dR][dR][dR][dI][dL]-NH2
SMILES: CC[C@@H](C)[C@@H](NC(=O)[C@@H](CCCNC(=N)N)NC(=O)[C@@H](CCCNC(=N)N)NC(=O)[C@@H](CCCNC(=N)N)NC(=O)[C@@H](Cc1c[nH]c2ccccc12)NC(C)=O)C(=O)N[C@H](CC(C)C)C(N)=O
As to B1, the Ki in assay [1] amounted to 22.7 µM; in assay [2], 601 µM.

B2: Ac-wrrrrl-NH2 (peptide)
peptide: Ac-[dW][dR][dR][dR][dR][dL]-NH2
SMILES: CC(=O)N[C@H](Cc1c[nH]c2ccccc12)C(=O)N[C@H](CCCNC(=N)N)C(=O)N[C@H](CCCNC(=N)N)C(=O)N[C@H](CCCNC(=N)N)C(=O)N[C@H](CCCNC(=N)N)C(=O)N[C@H](CC(C)C)C(N)=O
Regarding B2, the Ki in assay [1] stood at 5.3 µM; in assay [2] it was 203 µM.

B3: Ac-wrrrrr-NH2 (peptide)
peptide: Ac-[dW][dR][dR][dR][dR][dR]-NH2
SMILES: CC(=O)N[C@H](Cc1c[nH]c2ccccc12)C(=O)N[C@H](CCCNC(=N)N)C(=O)N[C@H](CCCNC(=N)N)C(=O)N[C@H](CCCNC(=N)N)C(=O)N[C@H](CCCNC(=N)N)C(=O)N[C@H](CCCNC(=N)N)C(N)=O
As to B3, the results for the Ki in assay [1] and in assay [2] were 2.4 µM and 334 µM, respectively.

B4: Ac-wrrrir-NH2 (peptide)
peptide: Ac-[dW][dR][dR][dR][dI][dR]-NH2
SMILES: CC[C@@H](C)[C@@H](NC(=O)[C@@H](CCCNC(=N)N)NC(=O)[C@@H](CCCNC(=N)N)NC(=O)[C@@H](CCCNC(=N)N)NC(=O)[C@@H](Cc1c[nH]c2ccccc12)NC(C)=O)C(=O)N[C@H](CCCNC(=N)N)C(N)=O
On to B4, for which the figures for the Ki in assay [1] and in assay [2] were 7 µM and 399 µM, respectively.
